In paper PMC8109025 (Bioconjugate chemistry, 2020):

Columns and labels:
[1] = target: 1N:1E nanobody-enzyme megamolecule (one cutinase-5F7 nanobody fusion covalently linked to one SnapTag-yCD fusion) (yeast); test: SEC
[2] = target: 1N:1E nanobody-enzyme megamolecule (one cutinase-5F7 nanobody fusion covalently linked to one SnapTag-yCD fusion) (yeast); test: enzyme activity against protein concentration
[3] = target: 1N:1E nanobody-enzyme megamolecule (one cutinase-5F7 nanobody fusion covalently linked to one SnapTag-yCD fusion) (yeast); test: negative-stain transmission electron microscopy
[4] = target: 2N:1E nanobody-enzyme megamolecule (two cutinase-5F7 nanobody fusions covalently linked to one SnapTag-yCD fusion) (yeast); test: SEC
[5] = target: 2N:1E nanobody-enzyme megamolecule (two cutinase-5F7 nanobody fusions covalently linked to one SnapTag-yCD fusion) (yeast); test: negative-stain transmission electron microscopy
[6] = target: the molecule itself; test: enzyme activity against protein concentration
[7] = target: the molecule itself; test: SEC

Molecule: 1N:1E nanobody-enzyme megamolecule (one cutinase-5F7 nanobody fusion covalently linked to one SnapTag-yCD fusion)
- stoichiometry N [1]: 2
- Kd [2]: 38 µM
- stoichiometry N [3]: 2

Molecule: 2N:1E nanobody-enzyme megamolecule (two cutinase-5F7 nanobody fusions covalently linked to one SnapTag-yCD fusion)
- stoichiometry N [4]: 2
- stoichiometry N [5]: 2

B1: SnapTag-yeast cytosine deaminase fusion protein (enzyme, UniProt Q12178 1-158, looked up)
chain: MVTGGMASKWDQKGMDIAYEEAALGYKEGGVPIGGCLINNKDGSVLGRGHNMRFQKGSATLHGEISTLENCGRLEGKVYKDTTLYTTLSPCDMCTGAIIMYGIPRCVVGENVNFKSKGEKYLQTRGHEVVVVDDERCKKIMKQFIDERPQDWFEDIGE
- Kd [6]: 12 µM
- stoichiometry N [7]: 2
